Data from patent US20250043302A1, “MUTATED HYDROXYPHENYLPYRUVATE DIOXYGENASE POLYPEPTIDE, AND CODING GENE AND USE THEREOF” (BEIJING DABEINONG BIOTECHNOLOGY CO., LTD., priority 2021, published 2025).

Experiments:
Format in all cases: in vivo
[1] = system: Arabidopsis thaliana T1 plants; test: Mesotrione tolerance of transgenic Arabidopsis thaliana T1 plants (spray, bleached leaf area grade, damage score); parameters: Scores: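 damage score 0-100 computed as Σ(N×S)/(T×M)×100 over grades 0-3 with higher meaning more damage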; conditions: Table 12; for Classification and statistics of the grade of pesticide damage Grade 0: number of plants at grade 0; for Classification and statistics of the grade of pesticide damage Grade 1: number of plants at grade 1; for Classification and statistics of the grade of pesticide damage Grade 2: number of plants at grade 2; for Classification and statistics of the grade of pesticide damage Grade 3: number of plants at grade 3; for Scores: pesticide damage score
Outline: (§1)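 Damage was assessed by bleaching grade (0 none; 1 <50%; 2 >50%; 3 100% of leaf area) one week after spraying. Sprays on 18-day-old T1 and wild-type plants used field-rate multiples: topramezone 25–200, isoxaflutole 35–280, mesotrione 52.5–420 g ai/ha.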

[2] = system: Arabidopsis thaliana T1 plants; test: Topramezone tolerance of transgenic Arabidopsis thaliana T1 plants (spray, bleached leaf area grade, damage score); conditions: Table 10; for Classification and statistics of the grade of pesticide damage Grade 0: number of plants at grade 0; for Classification and statistics of the grade of pesticide damage Grade 1: number of plants at grade 1; for Classification and statistics of the grade of pesticide damage Grade 2: number of plants at grade 2; for Classification and statistics of the grade of pesticide damage Grade 3: number of plants at grade 3; for Scores: pesticide damage score
Outline: as §1

[3] = system: Arabidopsis thaliana T1 plants; test: Isoxaflutole tolerance of transgenic Arabidopsis thaliana T1 plants (spray, bleached leaf area grade, damage score); conditions: Table 11; for Classification and statistics of the grade of pesticide damage Grade 0: number of plants at grade 0; for Classification and statistics of the grade of pesticide damage Grade 1: number of plants at grade 1; for Classification and statistics of the grade of pesticide damage Grade 2: number of plants at grade 2; for Classification and statistics of the grade of pesticide damage Grade 3: number of plants at grade 3; for Scores: pesticide damage score;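 as to Scores: Weighted damage index from 0 to 100 where higher means more damage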
Outline: as §1

B1: HPPDm-7-02: nucleotide sequence encoding AsHPPDm-A107-K351N-F372A-F383W with mutated C-terminal; vector DBN11788 (nucleic acid)
DNA: ATGCCACCTACTCCAGCTACAGCTACTGGTGCTGCTGCTGCTGCCGTTACTCCTGAGCACGCTGCCAGGTCATTCCCCAGGGTGGTTCGCGTGAACCCCAGATCTGATAGGTTCCCAGTTCTGAGCTTCCACCATGTTGAGCTGTGGTGCGCTGATGCTGCTTCTGCTGCTGGCAGGTTCTCTTTCGCTCTTGGTGCTCCACTCGCTGCTAGATCTGATCTGTCTACAGGAAATAGCGCTCATGCCTCACTCCTGCTTCGCTCAGGTGCTTTGGCCTTCCTCTTCACCGCTCCATATGCTCCCCCACCTCAGGAGGCTACTGCTGCTGCTACAGCCTCCATTCCAAGCTTCTCAGCTGATGCCGCTAGAACCTTCGCTGCTGCTCATGGACTTGCCGTGAGGTCTGTTGGTGTTCGCGTGGCTGATGCTGCTGAGGCTTTCAGAGTTTCCGTTGCCGGCGGAGCTAGGCCAGCTTTCGCTCCTGCTGATTTGGGACATGGTTTCGGCCTGGCTGAGGTTGAGCTTTACGGTGACGTGGTTCTCCGCTTCGTGTCTTACCCAGATGAGACTGACCTGCCTTTCCTTCCCGGCTTCGAGAGAGTTTCCTCTCCTGGTGCCGTGGATTACGGCCTGACAAGGTTCGACCACGTGGTTGGAAACGTTCCCGAGATGGCTCCAGTGATCGATTACATGAAGGGCTTCCTTGGATTCCATGAGTTCGCCGAGTTCACTGCTGAGGACGTGGGAACCACTGAGTCCGGTTTGAACTCTGTGGTTCTCGCCAACAATTCTGAGGCTGTTTTGCTCCCTCTGAATGAGCCTGTGCATGGAACCAAGAGGAGAAGCCAGATTCAAACTTACCTGGAGTACCACGGTGGCCCTGGAGTTCAGCATATCGCCCTTGCTTCTAATGATGTGTTGCGCACACTCAGAGAGATGCGCGCCAGAACCCCCATGGGAGGTTTCGAGTTCATGGCCCCACCACAGGCTAAGTACTACGAGGGCGTTAGAAGGATTGCTGGAGACGTGTTGAGCGAGGAGCAGATCAATGAGTGCCAAGAGCTGGGTGTTCTTGTGGATAGGGATGACCAGGGCGTTCTGCTTCAAATTGCCACTAAGCCAGTGGGCGACCGCCCTACATTCTGGCTTGAGATGATTCAAAGAATCGGCTGCATGGAGAAGGATGAGGTTGGACAGGAGTACCAAAAGGGCGGATGCGGTGGCTTCGGAAAGGGTAACTTCAGCGAGTTGTTCAAGTCAATCGAGGAGTATGAGAAGACCTTGGAGGCCAAGCAGCTCGTGGGTTGA
modifications: mutated C-terminus; HPPDm-7-02 Nucleotide Sequence
notes: vector DBN11788
Resistance evaluation ([1]; mesotrione 210 g ai/ha (2×)): Highly resistant
Classification and statistics of the grade of pesticide damage Grade 0 ([1]; mesotrione 210 g ai/ha (2×)): 16
Classification and statistics of the grade of pesticide damage Grade 1 ([1]; mesotrione 210 g ai/ha (2×)): 0
Classification and statistics of the grade of pesticide damage Grade 2 ([1]; mesotrione 210 g ai/ha (2×)): 0
Classification and statistics of the grade of pesticide damage Grade 3 ([1]; mesotrione 210 g ai/ha (2×)): 0
Scores ([1]; mesotrione 210 g ai/ha (2×)): 0
Resistance evaluation ([1]; mesotrione 420 g ai/ha (4×)): Highly resistant
Classification and statistics of the grade of pesticide damage Grade 0 ([1]; mesotrione 420 g ai/ha (4×)): 15
Classification and statistics of the grade of pesticide damage Grade 1 ([1]; mesotrione 420 g ai/ha (4×)): 1
Classification and statistics of the grade of pesticide damage Grade 2 ([1]; mesotrione 420 g ai/ha (4×)): 0
Classification and statistics of the grade of pesticide damage Grade 3 ([1]; mesotrione 420 g ai/ha (4×)): 0
Scores ([1]; mesotrione 420 g ai/ha (4×)): 2
Resistance evaluation ([2]; topramezone 100 g ai/ha (4×)): Highly resistant
Classification and statistics of the grade of pesticide damage Grade 0 ([2]; topramezone 100 g ai/ha (4×)): 16
Classification and statistics of the grade of pesticide damage Grade 1 ([2]; topramezone 100 g ai/ha (4×)): 0
Classification and statistics of the grade of pesticide damage Grade 2 ([2]; topramezone 100 g ai/ha (4×)): 0
Classification and statistics of the grade of pesticide damage Grade 3 ([2]; topramezone 100 g ai/ha (4×)): 0
Scores ([2]; topramezone 100 g ai/ha (4×)): 0
Resistance evaluation ([2]; topramezone 200 g ai/ha (8×)): Highly resistant
Classification and statistics of the grade of pesticide damage Grade 0 ([2]; topramezone 200 g ai/ha (8×)): 16
Classification and statistics of the grade of pesticide damage Grade 1 ([2]; topramezone 200 g ai/ha (8×)): 0
Classification and statistics of the grade of pesticide damage Grade 2 ([2]; topramezone 200 g ai/ha (8×)): 0
Classification and statistics of the grade of pesticide damage Grade 3 ([2]; topramezone 200 g ai/ha (8×)): 0
Scores ([2]; topramezone 200 g ai/ha (8×)): 0
Resistance evaluation ([3]; isoxaflutole 140 g ai/ha (2×)): Highly resistant
Classification and statistics of the grade of pesticide damage Grade 0 ([3]; isoxaflutole 140 g ai/ha (2×)): 16
Classification and statistics of the grade of pesticide damage Grade 1 ([3]; isoxaflutole 140 g ai/ha (2×)): 0
Classification and statistics of the grade of pesticide damage Grade 2 ([3]; isoxaflutole 140 g ai/ha (2×)): 0
Classification and statistics of the grade of pesticide damage Grade 3 ([3]; isoxaflutole 140 g ai/ha (2×)): 0
Scores ([3]; isoxaflutole 140 g ai/ha (2×)): 0
Resistance evaluation ([3]; isoxaflutole 280 g ai/ha (4×)): Highly resistant
Classification and statistics of the grade of pesticide damage Grade 0 ([3]; isoxaflutole 280 g ai/ha (4×)): 16
Classification and statistics of the grade of pesticide damage Grade 1 ([3]; isoxaflutole 280 g ai/ha (4×)): 0
Classification and statistics of the grade of pesticide damage Grade 2 ([3]; isoxaflutole 280 g ai/ha (4×)): 0
Classification and statistics of the grade of pesticide damage Grade 3 ([3]; isoxaflutole 280 g ai/ha (4×)): 0
Scores ([3]; isoxaflutole 280 g ai/ha (4×)): 0
